Paper PMC9278117
pKd: −log10 of the molar value.

What was measured:
[1] = biological target: 4A8 monoclonal antibody; experiment: BLI
[2] = biological target: CB6 monoclonal antibody; experiment: BLI

“S1-I53-50 NP (from UniProt P0DTC2 16-685) (complex)” gave a pKd [1] of 10.13 and a pKd [2] of over 12.00.
“S1-ferritin NP (from UniProt P0DTC2 16-685) (complex)” showed a pKd [1] of 8.93 and a pKd [2] of over 12.00.
In the case of “S1-mi3 NP (from UniProt P0DTC2 16-685) (complex)”, the pKd [1] was over 12.00 and the pKd [2] was over 12.00.
